Measured values published in patent publication US20110136145A1, “METHODS FOR PROMOTING FUSION AND REPROGRAMMING OF SOMATIC CELLS” (THE JOHNS HOPKINS UNIVERSITY, priority 2008, published 2011).

Legend:
[1] = system: ESC-induced Oct4-GFP re-activation in NSCs; assay: CLEAR analysis of ESC fusion-induced reprogramming (PEG-induced fusion of Z-Red ESCs and CIPOE NSCs, flow cytometry)
Description: CLEAR strategy uses engineered ESCs and NSCs for monitoring fusion-induced DsRed expression and reprogramming-induced GFP expression (FIG. 1A). Z-Red ESCs were derived from a clonal ESC line containing one copy of a transgene (CAG-loxP-LacZ::neomycin-polyA-loxP-DsRed.T3) as a Cre recombination excision reporter.
Adult NSCs were isolated from Oct4-GFP (GOF 18-A PE-EGFP) transgenic mice and transduced by retroviruses to stably co-express Cre and the puromycin resistance gene through a bicistronic cassette (termed CIPOE NSCs hereafter). Somatic cells with Oct4-GFP transgene integration have been used previously to investigate reprogramming, in which the regulatory elements of Oct4 direct reliable GFP reactivation from somatic genomes in reprogrammed ESC-like hybrid cells (also see FIG. 3). Multiple CIPOE NSC lines from Oct4-GFP transgenic mice were established, characterized and used for subsequent cell fusion experiments.
To quantitatively analyze the reprogramming-induced Oct4-GFP re-activation, dual-color flow cytometry was used to display and measure the cell population that underwent PEG-induced cell fusion. Viable cells were identified by their typical FSC (Forward Scatter) and SSC (Side Scatter) properties. To ensure appropriate gating for […] and DsRed+ events and to compensate the spectrum crossover of GFP and DsRed signals, the system was first calibrated using multiple control cells, including Z-Red ESCs, CIPOE NSCs, mixed Z-Red ESCs and CIPOE NSCs without PEG. Z-Red ESCs transfected with a constitutive Cre expression plasmid, and CIPOE NSCs transfected with a Cre excision reporter plasmid (FIG. 4A).
ESC fusion-induced Oct4 re-activation from NSCs was quantitatively measured using two different approaches. In the first approach, the reprogramming frequency (Rf) is determined by the ratio of GFP DsRed+ cells to total DsRed+ cells. […] In the second approach, the reprogramming efficacy is determined by the distribution of GFP fluorescence intensities of individual cells from the DsRed+ population (FIG. 4C). This analysis provides a measurement of the efficiency of Oct4-GFP re-activation in NSCs after successful fusion.
The protocol was optimized for PEG-induced cell fusion between ESCs and NSCs to achieve maximum efficiency and minimal toxicity. Equal numbers of ESCs and NSCs were mixed thoroughly and spun down in PBS. The pellet was loosened by gentle tapping and 50% PEG (500 μl for 1×10^7 cells) was added to the cells continuously over one minute while swirling the mixture in 37° C. water bath Next, 2 ml of ESC medium was layered on top of PEG-cell mixture and one-minute incubation in 37° C., followed by low-speed centrifugation at 1,800 rpm for 5 minutes. After removing the supernatant, the pellet was incubated with ESC medium for one minute, washed, resuspended and plated onto gelatin-coated dishes and grown in Dubelcco's Modified Eagle's Medium, 15% fetal bovine serum supplemented with mouse leukemia inhibitory factor (ESGRO), 0.1 mM nonessential amino acids, 0.1 mM β-mercaptoethanol, and 50 U/ml penicillin/50 μg/ml streptomycin (ESC medium). […] The following pharmacological inhibitors were applied in ESC-fusion experiments only during the first 48 hours after fusion. DMOG (5-10 μM; BioMol), Anacardic acid (5-10 μM; Calbiochem), Trichostatin A (TSA, 100 nM-1 μM; Sigma) and azidothymidine (AZT, 1-5 μM; Sigma).

G9a = assay: Quantitative real-time PCR of G9a expression in CIPOE NSCs; format: cell-based, mouse; conditions: CIPOE cells
Description: Shown is a summary of quantitative real-time PCR analysis of the expression level of G9a in Z-Red ESCs, CIPOE NSCs, CIPOE NSCs with control shRNA or G9a-targeted shRNA. The mRNA abundance was normalized to the levels in CIPOE cells. Values represent mean+SEM (n=3; * P<0.01, Students t-test). […] Shown are results from cell fusion experiments between Z-Red and CIPOE, CIPOE-shControl, or CIPOE-shG9a cells. Values represent mean+SEM (n=3; *- P<0.01 Students t-test). (C) Summary of reprogramming efficacy. Cumulative distribution plots of DsRed+ population with graded GFP fluorescence intensities are shown for comparison of the reprogramming efficacy of Z-Red ESCs with CIPOE-shControl, or CIPOE-shG9a cells at day 2 and day 4 after cell fusion. Values represent mean±SEM (n=3; *: P<0.01, Kolmogorov-Smirnov test).
Next, the molecular identities of epigenetic factors that play critical roles in reprogramming were examined. […] Using a previously validated small short-hairpin RNA (shRNA) for mouse G9a, the expression of endogenous G9a was knocked down in CIPOE cells, as shown by quantitative real-time PCR (FIG. 7A). […]
(§1) For real-time quantitative PCR, total RNAs were purified using RNAeasy kit (Qiagen) and converted to cDNA by SuperScript III (Invitrogen). Triplicate cDNA samples were added to a SYBR-green based quantitative PCR reaction mix and analyzed using the ddCt methods. […]

Oct4 = assay: Conventional RT-PCR and quantitative PCR of endogenous Oct4 expression in adult NSCs; format: cell-based, mouse
Procedure: (§2) (A) is a schematic drawing of Oct4 promoter with 16 CpG sites, which are located between the proximal enhancer and exon 1. Bisulfite sequencing analysis is performed for genomic DNA extracted from CIPOE, Z-Red ESCs, fusion clone B3, CIPOE-shControl and CIPOE-shG9a NSCs. (B, C) show conventional RT-PCR (B) and quantitative real-time PCR(C) are used to compare the mRNA abundance of Oct4 in CIPOE, Z-Red ESCs, fusion clone B3, CIPOE-shControl and CIPOE-shG9a NSCs. Data represent mean+SEM. (n=3, *. P<0.01, Student's t-test).
Reprogramming requires erasure of the somatic epigenoine including both histone and DNA modification. Next it was further tested whether DNA demethylation of pluripotency gene Oct4 induced by ESC-mediated reprogramming may partially account for the facilitating effects of histone demethylation during reprogramming. […] The impact of G9a knockdown on endogenous Oct4 expression was also evaluated. […] The mRNA abundance of Oct4 expression measured in bulk adult NSC cultures with G9a knocking-down reached around 10% of that in ESCs, while little expression was detected in CIPOE or CIPOE cells expressing the control shRNA.
as §1

Oct4 promoter = assay: Bisulfite sequencing of Oct4 promoter in CIPOE NSCs; format: cell-based, mouse; conditions: independent of cell fusion
Procedure: as §2
Reprogramming requires erasure of the somatic epigenoine including both histone and DNA modification. […] The impact of G9a knockdown on endogenous Oct4 expression was also evaluated. […] The mRNA abundance of Oct4 expression measured in bulk adult NSC cultures with G9a knocking-down reached around 10% of that in ESCs, while little expression was detected in CIPOE or CIPOE cells expressing the control shRNA.
For bisulfite genomic sequencing, 500 ng of genomic DNA from each sample was digested by EcoRI overnight, followed by boiling for 5 min and incubation in 0.3 M NaOH at 50° C. for 15 min. […] Efficiency of bisulfite conversion was monitored by the presence of unconverted C residues in non-CpG regions, which were only seldom seen. […]

[2] = 100 nM, applied only during the first 48 hours after fusion

N[C@@H]1C[C@H]1c1ccccc1 (racemic) [Tranylcypromine]
Effects (on reprogramming) ([1]; 2 μM, applied only during the first 48 hours after fusion): mild reprogramming deficit

CCCCCCCCCCCCCCCc1cccc(O)c1C(=O)O [Anacardic acid]
Effects (on reprogramming) ([1]; 5 μM, applied only during the first 48 hours after fusion): mild reprogramming deficit;

CC(/C=C/C(=O)NO)=C\[C@@H](C)C(=O)c1ccc(N(C)C)cc1 [TSA, Trichostatin A]
Effects (on reprogramming) [1, 2]: pro-differentiation
Effects (toxicity to the cells) [1, 2]: toxic

B1: shRNA-G9a: short hairpin RNA for mouse G9a, …, cloned into retroviral vector pUEG (nucleic acid, listed as Mus musculus)
chain: TCTATCGCCTTGAGCCGTTGGCCTTCAGATAGGCTGATTTGGTTGGTGTCTTGCTCTTTCTGTGGGAAGGCTGCGGCTCACTTCCTTCTGACTTCTTGATAATTTTGCATTAGACATTTAACTCTTCTTTCTATGATCTTTCCTTCTAGACACTGAGTTTTTTGGTTGTTGCCTAAAACCTTTTCAGAAATCCCTTCCCTCGCCATCACACTGACATGAGTGTGGGTCTTCCTGGTCCCCACAGTTTGCCTAGTTCTGAGGAAGCATCGAATTCTGGGAACGCCTCATCAATGCCTGCAGTTTTTCATCCCGAGAACTATTCTTGCTTACAAGGGTCTGCTACTGAGATGCTCTGCACAGAGGCTGCCTCTCCTCGCCCTTCCTCTGAAGACCTGCCTCTTCAAGGCAGCCCTGATTCTTCTACCAGTCCCAAACAAAAGCTCTCAAGTCCTGAGGCTGACAAGGGCCCTGAGGAGGAGGAGAACAAGGTCCTTGCCAGGAAGCAGAAGATGCGGACTGTGTTCTCTCAGGCCCAGCTGTGTGCACTCAAGGACAGGTTTCAGAAGCAGAAGTACCTCAGCCTCCAGCAGATGCAAGAACTCTCCTCCATTCTGAACCTGAGCTATAAGCAGGTTAAGACCTGGTTTCAAAACCAAAGGATGAAGTGCAAGCGGTGGCAGAAAAACCAGTGGTTGAAGACTAGCAATGGTCTGATTCAGAAGGGCTCAGCACCAGTGGAGTATCCCAGCATCCATTGCAGCTATCCCCAGGGCTATCTGGTGAACGCATCTGGAAGCCTTTCCATGTGGGGCAGCCAGACTTGGACCAACCCAACTTGGAGCAGCCAGACCTGGACCAACCCAACTTGGAACAACCAGACCTGGACCAACCCAACTTGGAGCAGCCAGGCCTGGACCGCTCAGTCCTGGAACGGCCAGCCTTGGAATGCTGCTCCGCTCCATAACTTCGGGGAGGACTTTCTGCAGCCTTACGTACAGTTGCAGCAAAACTTCTCTGCCAGTGATTTGGAGGTGAATTTGGAAGCCACTAGGGAAAGCCATGCGCATTTTAGCACCCCACAAGCCTTGGAATTATTCCTGAACTACTCTGTGACTCCACCAGGTGAAATATGAGACTTACGCAACATCTGGGCTTAAAGTCAGGGCAAAGCCAGGTTCCTTCCTTCTTCCAAATATTTTCATATTTTTTTTAAAGATTTATTTATTCATTATATGTAAGTACACTGTAGCTGTCTTCAGACACTCCAGAAGAGGGCGTCAGATCTTGTTACGTATGGTTGTGAGCCACCATGTGGTTGCTGGGATTTGAACTCCTGACCTTCGGAAGAGCAGTCGG
modifications: cloned into retroviral vector pUEG
notes: short hairpin RNA for mouse G9a, …, cloned into retroviral vector pUEG
increase in the reprogramming frequency ([1]; day 2, expressed in CIPOE NSCs): 110%
efficacy of ESC-induced Oct4-GFP re-activation ([1]; day 2 and day 4, expressed in CIPOE NSCs): significantly enhanced
increase in the reprogramming frequency ([1]; day 4, expressed in CIPOE NSCs): 26%
expression of endogenous G9a (G9a): knocked down
expression of endogenous Oct4 (Oct4; adult NSCs, conventional and quantitative PCR): partially re-activated
mRNA abundance of Oct4 expression (Oct4; bulk adult NSC cultures, relative to that in ESCs): around 10%
DNA methylation in Oct4 promoter regions (Oct4 promoter): considerably decreased
